{"source": "paper PMC10216364", "about": "“Structural Insight into the Mechanism of σ32-Mediated Transcription Initiation of Bacterial RNA Polymerase” (Biomolecules, 2023)", "key": {"[1]": {"target": "RNA polymerase core enzyme;chimera sigma32-28 (E. coli;E. coli) (UniProt P0A7Z4+P0A8V2+P0A8T7+P0A800+P0AGB3)", "test": "fluorescence polarization", "conditions": "apparent Kd; FP: 10 mM Tris-HCl pH 7.7, 100 mM NaCl, 1 mM DTT, 1% glycerol, 0.025% Tween-20, 5 nM DNA, 10-320 nM holoenzyme, room temperature, 5 min; stopped-flow: 10 mM …"}, "[2]": {"target": "RNA polymerase core enzyme;chimera sigma32-38 (E. coli;E. coli) (UniProt P0A7Z4+P0A8V2+P0A8T7+P0A800+P0AGB3)", "test": "fluorescence polarization", "conditions": "apparent Kd; FP: 10 mM Tris-HCl pH 7.7, 100 mM NaCl, 1 mM DTT, 1% glycerol, 0.025% Tween-20, 5 nM DNA, 10-320 nM holoenzyme, room temperature, 5 min; stopped-flow: 10 mM …"}, "[3]": {"target": "RNA polymerase core enzyme;sigma32 (RpoH) wild type (E. coli;E. coli, UniProt P0A7Z4;P0A8V2;P0A8T7;P0A800;P0AGB3 1-329;1-1342;1-1407;1-91;1-284, |)", "test": "fluorescence polarization; apparent Kd; FP: 10 mM Tris-HCl pH 7.7, 100 mM NaCl, 1 mM DTT, 1% glycerol, 0.025% Tween-20, 5 nM DNA, 10-320 nM holoenzyme, room temperature, 5 min; stopped-flow: 10 mM Tris-HCl pH 7.7, 20 mM NaCl, 10 mM MgCl2, 1 mM DTT", "conditions": "protein: recombinant;recombinant, tags: ;His tag (pET28a, Ni-NTA), chain copies: 2;1;1;1;1"}, "[4]": {"target": "T1, β subunit of E. coli RNAP (E. coli, UniProt P0A8V2 2-1342)", "T1 construct": "RNA polymerase subunit beta (RpoB), E. coli; stood in the assay as a subunit of the RNAP core enzyme; A subunit of m2; also called RpoB; bears the β-flap tip helix (βFTH); source: E. coli BL21(DE3), co-expressed from pET28a-rpoA-rpoB-rpoC-rpoZ, purified as part of the RNAP core enzyme", "test": "cryo-EM structure; σ32-RPo: RNAP core enzyme, σ32 and dnaKp1 promoter scaffold mixed at 1:4:1.2 molar ratios, 4 °C overnight, purified on Superdex 200; 20 mM Tris-HCl pH 8.0, 0.1 M NaCl, 1% glycerol, 1 mM DTT; promoter DNA present", "conditions": "both partners purified"}, "[5]": {"target": "T2, β′ subunit of E. coli RNAP (E. coli, UniProt P0A8T7 1-1407)", "T2 construct": "RNA polymerase subunit beta' (RpoC), E. coli; stood in the assay as a subunit of the RNAP core enzyme; A subunit of m2; also called RNAP-β′; RpoC; source: E. coli BL21(DE3), co-expressed from pET28a-rpoA-rpoB-rpoC-rpoZ, purified as part of the RNAP core enzyme", "test": "cryo-EM structure; σ32-RPo: RNAP core enzyme, σ32 and dnaKp1 promoter scaffold mixed at 1:4:1.2 molar ratios, 4 °C overnight, purified on Superdex 200; 20 mM Tris-HCl pH 8.0, 0.1 M NaCl, 1% glycerol, 1 mM DTT; promoter DNA present", "conditions": "both partners purified"}, "[6]": {"target": "RNA polymerase core enzyme;sigma32 R266A (E. coli;E. coli, UniProt P0A7Z4;P0A8V2;P0A8T7;P0A800;P0AGB3 1-329;1-1342;1-1407;1-91;1-284, |R266A)", "test": "fluorescence polarization; apparent Kd; FP: 10 mM Tris-HCl pH 7.7, 100 mM NaCl, 1 mM DTT, 1% glycerol, 0.025% Tween-20, 5 nM DNA, 10-320 nM holoenzyme, room temperature, 5 min; stopped-flow: 10 mM Tris-HCl pH 7.7, 20 mM NaCl, 10 mM MgCl2, 1 mM DTT", "conditions": "protein: recombinant;recombinant; tags: ;His tag (pET28a, Ni-NTA); chain copies: 2;1;1;1;1; blunt"}, "[7]": {"target": "RNA polymerase core enzyme;sigma32 L253A (E. coli;E. coli, UniProt P0A7Z4;P0A8V2;P0A8T7;P0A800;P0AGB3 1-329;1-1342;1-1407;1-91;1-284, |L253A)", "test": "fluorescence polarization; apparent Kd; FP: 10 mM Tris-HCl pH 7.7, 100 mM NaCl, 1 mM DTT, 1% glycerol, 0.025% Tween-20, 5 nM DNA, 10-320 nM holoenzyme, room temperature, 5 min; stopped-flow: 10 mM Tris-HCl pH 7.7, 20 mM NaCl, 10 mM MgCl2, 1 mM DTT", "conditions": "protein: recombinant;recombinant; tags: ;His tag (pET28a, Ni-NTA); chain copies: 2;1;1;1;1; blunt"}, "[8]": {"target": "RNA polymerase core enzyme;sigma32 E265A (E. coli;E. coli, UniProt P0A7Z4;P0A8V2;P0A8T7;P0A800;P0AGB3 1-329;1-1342;1-1407;1-91;1-284, |E265A)", "test": "fluorescence polarization; apparent Kd; FP: 10 mM Tris-HCl pH 7.7, 100 mM NaCl, 1 mM DTT, 1% glycerol, 0.025% Tween-20, 5 nM DNA, 10-320 nM holoenzyme, room temperature, 5 min; stopped-flow: 10 mM Tris-HCl pH 7.7, 20 mM NaCl, 10 mM MgCl2, 1 mM DTT", "conditions": "protein: recombinant;recombinant; tags: ;His tag (pET28a, Ni-NTA); chain copies: 2;1;1;1;1; blunt"}, "[9]": {"target": "RNA polymerase core enzyme;sigma32 R268A (E. coli;E. coli, UniProt P0A7Z4;P0A8V2;P0A8T7;P0A800;P0AGB3 1-329;1-1342;1-1407;1-91;1-284, |R268A)", "test": "fluorescence polarization; apparent Kd; FP: 10 mM Tris-HCl pH 7.7, 100 mM NaCl, 1 mM DTT, 1% glycerol, 0.025% Tween-20, 5 nM DNA, 10-320 nM holoenzyme, room temperature, 5 min; stopped-flow: 10 mM Tris-HCl pH 7.7, 20 mM NaCl, 10 mM MgCl2, 1 mM DTT", "conditions": "protein: recombinant;recombinant; tags: ;His tag (pET28a, Ni-NTA); chain copies: 2;1;1;1;1; blunt"}}, "data": [{"molecule": "CCTTGAAGACGTGGTTTACGACCCCATTTAGTAG / GGGGTCGTAAACCACGTCTTCAAGG [long promoter DNA, -35 to -10 bubble]", "values": [{"measurement": "Kd", "setting": "[1]", "result": 9.22, "unit": "nM"}, {"measurement": "Kd", "setting": "[2]", "result": 8.34, "unit": "nM"}]}, {"molecule": "long promoter DNA, -35 to -10 bubble (mixed) DNA 1: CCTTGAAGACGTGGTTTACGACCCCATTTAGTAG DNA 2: GGGGTCGTAAACCACGTCTTCAAGG", "values": [{"measurement": "Kd", "setting": "[3]; 25 bp duplex, 3' overhang 9 nt on S5 (fork-junction type)", "result": 14.9, "unit": "nM"}]}, {"molecule": "E. coli σ^32 (natural protein, RNA polymerase sigma factor σ32 (RpoH), E. coli; the N-terminus was not modelled in the structure; the tag and its end are not described; also called sigma 32; RpoH; source: E. coli BL21(DE3), plasmid pET28a-rpoH, purified (Ni-NTA, HiTrap Heparin)) MTDKMQSLALAPVGNLDSYIRAANAWPMLSADEERALAEKLHYHGDLEAAKTLILSHLRFVVHIARNYAGYGLPQADLIQEGNIGLMKAVRRFNPEVGVRLVSFAVHWIKAEIHEYVLRNWRIVKVATTKAQRKLFFNLRKTKQRLGWFNQDEVEMVARELGVTSKDVREMESRMAAQDMTFDLSSDDDSDSQPMAPVLYLQDKSSNFADGIEDDNWEEQAANRLTDAMQGLDERSQDIIRARWLDEDNKSTLQELADRYGVSAERVRQLEKNAMKKLRAAIEA", "values": [{"measurement": "binding result", "setting": "[4]", "result": "binds"}, {"measurement": "binding result", "setting": "[5]", "result": "binds"}]}, {"molecule": "short -35 element DNA (dsDNA) DNA 1: CCTTGAAGACGTGG DNA 2: CCACGTCTTCAAGG", "values": [{"measurement": "Kd", "setting": "[6]", "result": 54.9, "unit": "nM"}, {"measurement": "Kd", "setting": "[7]", "result": 38.8, "unit": "nM"}, {"measurement": "Kd", "setting": "[3]; blunt", "result": 28.4, "unit": "nM"}, {"measurement": "Kd", "setting": "[8]", "result": 45.9, "unit": "nM"}, {"measurement": "Kd", "setting": "[9]", "result": 46.7, "unit": "nM"}]}]}
